From patent US20240059766A1

Experiments:
[1] = molecular target: T1, Tau(pS404) peptide (human); assay: direct ELISA, TauS404 coated at 1 ug/mL, antibody titrated
T1 sequence (peptide, only S404 phosphorylated (pS404)): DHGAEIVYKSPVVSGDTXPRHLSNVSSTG

[2] = molecular target: T1, Tau(pS404) peptide (human); assay: competition ELISA, TauS404 coated at 1 ug/mL, VY014 titrated; peptide 12 at 1 µg/mL as competitor in solution
[3] = molecular target: T1, Tau(pS404) peptide (human); assay: competition ELISA, TauS404 coated at 1 ug/mL, VY014 titrated; AC04 peptide at 1 µg/mL as competitor in solution

EC50 (read off the curve) [1]: 0.06 nM | EC50 (read off the curve) [2]: 0.2 nM | EC50 (read off the curve) [3]: 0.08 nM
B1: VY014 (antibody, V domains shown)
VH: EVQLVESGGGLVQPGGSLRLSCAASGFTFNNYDMHWVRQAAGKGLEWVSTIGAAGDTYYPGSVKGRFIISRENAKNSLYLQMNSLRAGDTAVYYCARAGETLEGATIGYYYGMDVWGQGTTVTVSS
VL: DILMTQSPLSLPVTPGEPASISCRSSQSLLHSNGYNYLDWYLQKPGQSPQLLIYLGSNRASGVPDRFSGSGSGTDFTLKFSRVEAEDVGLYYCMQALQIPLTFGGGTKVEIK
